Experimental data reported in paper PMC5774828.

Biological target: DS protein (Dengue-HBsAg fusion: EDIII of DENV-1, -3, -4 and -2 joined in tandem to the HBV S antigen) (dengue virus 1 (West Pac-74) | dengue virus 3 (H87/56) | dengue virus 4 (H241-P) | dengue virus 2 (PR159-S1/69) | hepatitis B virus (adw serotype))
Assay: densitometry of a Western blot of the purified VLPs; Western blot of purified DSV4 developed with anti-S mAb 5S; ratio from the peak areas of DS, S and S dimer (ImageJ)

Hepatitis B virus surface (S) antigen, unfused (natural protein)
stoichiometry N: 4 S per DS
